{"source": "patent US20050158298A1", "molecules": {"B1": {"name": "cytosolic leucine aminopeptidase from porcine kidney (Sigma) (protein)", "chain": "TKGLVLGIYSKEKEDDAPQFTSAGENFDKLVSGKLREILNISGPPLKAGKTRTFYGLHEDFSSVVVVGLGKKGAGVDDQENWHEGKENIRAAVAAGCRQIQDLEIPSVEVDPCGDAQAAAEGAVLGLYEYDELKQKKKVVVSAKLHGSGDQEAWQRGVLFASGQNLARHLMETPANEMTPTRFAEVIEKNLKSASSKTDVHIRPKSWIEEQEMGSFLSVAKGSEEPPVFLEIHYKGSPDASDPPLVFVGKGITFDSGGISIKASANMDLMRADMGGAATICSTIVSAAKLDLPINLVGLAPLCENMPSGKANKPGDVVRAKNGKTIQVDNTDAEGRLILADALCYAHTFNPKVIINAATLTGAMDIALGSGATGVFTNSSWLWNKLFEASIETGDRVWRMPLFEHYTKQIVDCQLADVNNIGKYRSAGACTAAAFLKEFVTHPKWAHLDIAGVMTNKDEVPYLRKGMAGRPTRTLIEFLLRFSQDSA"}, "B2": {"name": "microsomal leucine aminopeptidase from porcine kidney (Sigma) (protein)", "chain": "KPWNRYRLPTTLLPDSYNVTLRPYLTPNADGLYIFKGKSIVRLLCQEPTDVIIIHSKKLNYTTQGHMVVLRGVGDSQVPEIDRTELVELTEYLVVHLKGSLQPGHMYEMESEFQGELADDLAGFYRSEYMEGNVKKVLATTQMQSTDARKSFPCFDEPAMKATFNITLIHPNNLTALSNMPPKGSSTPLAEDPNWSVTEFETTPVMSTYLLAYIVSEFQSVNETAQNGVLIRIWARPNAIAEGHGMYALNVTGPILNFFANHYNTSYPLPKSDQIALPDFNAGAMENWGLVTYRENALLFDPQSSSISNKERVVTVIAHELAHQWFGNLVTLAWWNDLWLNEGFASYVEYLGADHAEPTWNLKDLIVPGDVYRVMAVDALASSHPLTTPAEEVNTPAQISEMFDSISYSKGASVIRMLSNFLTEDLFKEGLASYLHAFAYQNTTYLDLWEHLQKAVDAQTSIRLPDTVRAIMDRWTLQMGFPVITVDTKTGNISQKHFLLDSESNVTRSSAFDYLWIVPISSIKNGVMQDHYWLRDVSQAQNDLFKTASDDWVLLNVNVTGYFQVNYDEDNWRMIQHQLQTNLSVIPVINRAQVIYDSFNLATAHMVPVTLALDNTLFLNGEKEYMPWQAALSSLSYFSLMFDRSEVYGPMKKYLRKQVEPLFQHFETLTKNWTERPENLMDQYSEINAISTACSNGLPQCENLAKTLFDQWMSDPENNPIHPNLRSTIYCNAIAQGGQDQWDFAWGQLQQAQLVNEADKLRSALACSNEVWLLNRYLGYTLNPDLIRKQDATSTINSIASNVIGQPLAWDFVQSNWKKLFQDYGGGSFSFSNLIQGVTRRFSSEFELQQLEQFKKNNMDVGFGSGTRALEQALEKTKANIKWVKENKEVVLNWFIEHS"}, "B3": {"name": "recombinant ruLAP2 produced in P. pastoris (protein)", "chain": "RLVGQEPFGWPFKPMVTQDDLQNKIKLKDIMAGVEKLQSFSDAHPEKNRVFGGNGHKDTVEWIYNEIKATGYYDVKKQEQVHLWSHAEAALNANGKDLKASAMSYSPPASKIMAELVVAKNNGCNATDYPANTQGKIVLVERGVCSFGEKSAQAGDAKAAGAIVYNNVPGSLAGTLGGLDKRHVPTAGLSQEDGKNLATLVASGKIDVTMNVISLFENRTTWNVIAETKGGDHNNVIMLGAHSDSVDAGPGINDNGSGSIGIMTVAKALTNFKLNNAVRFAWWTAEEFGLLGSTFYVNSLDDRELHKVKLYLNFDMIGSPNFANQIYDGDGSAYNMTGPAGSAEIEYLFEKFFDDQGIPHQPTAFTGRSDYSAFIKRNVPAGGLFTGAEVVKTPEQVKLFGGEAGVAYDKNYHRKGDTVANINKGAIFLNTRAIAYAIAEYARSLKGFPTRPKTGKRDVNPQYSKMPGGGCGHHTVFM"}}, "key": {"[1]": {"biological_target": "gliadin 33mer …", "test": "cell-based or functional assay"}, "[2]": {"tested_on": "gliadin 33mer LQLQPFPQPQLPYPQPQLPYPQPQLPYPQPQPF"}, "[3]": {"biological_target": "T1, gliadin 33mer LQLQPFPQPQLPYPQPQLPYPQPQLPYPQPQPF", "T1 chain": "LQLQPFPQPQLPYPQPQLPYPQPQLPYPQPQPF"}, "[4]": {"biological_target": "T2, gliadin 14mer PQPQLPYPQPQLPY", "T2 chain": "PQPQLPYPQPQLPY"}}, "data": [{"molecule": "Pronase", "values": [{"measurement": "digestion of the peptide over 20 h, E/S=1/25", "setting": "[1]", "value": "< 40", "unit": "%"}]}, {"molecule": "Chymotrypsin", "values": [{"measurement": "digestion of the peptide", "setting": "[2]", "value": "Chymotrypsin alone or supplemented with ruLAP or DPPIV is not able to breakdown the peptide"}]}, {"molecule": "B1", "values": [{"measurement": "digestion of the peptide, RP-HPLC", "setting": "[3]", "value": "totally inactive towards the 33mer"}]}, {"molecule": "B2", "values": [{"measurement": "digestion of the peptide, RP-HPLC and ESI-MS", "setting": "[3]", "value": "results only in a partial deletion of N-terminal Leu and C-terminal Phe (due to a carboxypeptidasic contaminant)"}]}, {"molecule": "B3", "values": [{"measurement": "digestion of the peptide, 37 C, 4 h, RP-HPLC and ESI-MS", "setting": "[4]", "value": "the 14mer is not digested with ruLAP2 within 4 h"}, {"measurement": "degradation of the peptide within 4 h, RP-HPLC", "setting": "[3]", "value": "partial degradation (less than 50%) of the peptide within 4 h"}, {"measurement": "removal of the N-terminal residue; mass loss by ESI-MS", "setting": "Ala-proNPY", "value": "the N-terminal alanine was almost totally removed (molecular mass loss of 71 amu) from proNPY"}, {"measurement": "removal of N-terminal residues; mass loss by ESI-MS", "setting": "Gly-Ser-proNPY", "value": "cleavage of the two N-terminal residues Gly-Ser with a theoretical loss of 144.1 amu (found 144.2)"}]}]}
